Source: the RNAGym collection of RNA variant scans (doi:10.7554/elife.80360)

B1: Hairpin Ribozyme (parent)
chain: GUCCUCUUUCACGUGCGCGUGAAAGAGAGAAGUGAACCAGAGAAACACACGUUGUGGUAUAUUACCUGGUA

Variants of: B1
Assay: self-cleavage, relative activity (ratio to wild type); higher = more cleavage; co-transcriptional
A24G G68A gave a self-cleavage of 0.172.
Variant G40A G51C has a self-cleavage of 0.238.
A45G U58C gave a self-cleavage of 0.269.
In the case of A35G C37U, the self-cleavage is reported as 0.302.
U8C A45G gave a self-cleavage of 0.149.
With C6G U9G the self-cleavage was 0.208.
C6G U9A gave a self-cleavage of 0.274.
Work on A28U A30C yielded a self-cleavage of 0.167.
For A41G U58C, the self-cleavage was 0.911.
Work on A44U G69U yielded a self-cleavage of 0.299.
U8C A47U gave a self-cleavage of 0.224.
A43G A49G showed a self-cleavage of 0.0811.
Variant G42C A49C has a self-cleavage of 0.215.
Variant A41C U60A has a self-cleavage of 1.17.
U20A A43U gave a self-cleavage of 0.0666.
With U9G G68A the self-cleavage was 0.247.
Variant G25U G40A has a self-cleavage of 0.256.
Variant G42C G68U has a self-cleavage of 0.138.
For A24U U63C, the self-cleavage was 0.233.
A24U G32A gave a self-cleavage of 0.15.
For C4U G54U, the self-cleavage was 0.198.
With A26U G29C the self-cleavage was 0.135.
In the case of C4A C50A, the self-cleavage is reported as 0.178.
G34U U67G gave a self-cleavage of 0.658.
With C3A A22U the self-cleavage was 0.702.
In the case of U9C U14A, the self-cleavage is reported as 0.781.
Variant G19U G54U has a self-cleavage of 0.497.
With C50U C66A the self-cleavage was 0.165.
Variant U5C C50G has a self-cleavage of 0.147.
With A11G A61G the self-cleavage was 0.166.
With U14A G56A the self-cleavage was 0.0617.
G25A U63A showed a self-cleavage of 0.108.
For A45U G57C, the self-cleavage was 0.15.
A31C A41C gave a self-cleavage of 0.0332.
U2C U14G showed a self-cleavage of 0.075.
In the case of U5G G25C, the self-cleavage is reported as 0.214.
In the case of C4A U53C, the self-cleavage is reported as 0.206.
In the case of G42U U62A, the self-cleavage is reported as 0.2.
G29C C66U showed a self-cleavage of 0.135.
A49C U53G showed a self-cleavage of 0.0631.
With A43G U52C the self-cleavage was 0.064.
With G19C U60G the self-cleavage was 0.541.
A39U U52C gave a self-cleavage of 0.378.
U7A C46A gave a self-cleavage of 0.0948.
G1A G17U showed a self-cleavage of 0.127.
Work on C48A U62A yielded a self-cleavage of 0.14.
In the case of C12G A71G, the self-cleavage is reported as 0.803.
With C37U U67A the self-cleavage was 0.175.
Work on U5C G13U yielded a self-cleavage of 0.579.
G42A G57C gave a self-cleavage of 0.0908.
G15U A30G gave a self-cleavage of 0.122.
Variant C10G G32A has a self-cleavage of 0.163.
With A30C U60C the self-cleavage was 0.279.
G25C G40U showed a self-cleavage of 0.12.
U7C A36U showed a self-cleavage of 0.466.
With U33A A64C the self-cleavage was 0.143.
For A39G U60C, the self-cleavage was 0.424.
C37A U58A showed a self-cleavage of 0.235.
C12U G32U showed a self-cleavage of 0.082.
C10U C50G showed a self-cleavage of 0.195.
In the case of C12G G40U, the self-cleavage is reported as 0.113.
Work on G21U G57A yielded a self-cleavage of 0.148.
U8G A23C showed a self-cleavage of 1.21.
G21U A64C gave a self-cleavage of 0.149.
With G34A A49U the self-cleavage was 0.174.
Work on G17A A64G yielded a self-cleavage of 0.615.
Work on C12A G29C yielded a self-cleavage of 0.0897.
G34A G57U showed a self-cleavage of 0.461.
With G19C A36G the self-cleavage was 0.766.
C10A A31U showed a self-cleavage of 0.112.
For U9G U20A, the self-cleavage was 0.531.
G17C C46G showed a self-cleavage of 0.074.
C12U A36C gave a self-cleavage of 0.674.
In the case of C6A G19C, the self-cleavage is reported as 0.55.
In the case of C10G A43C, the self-cleavage is reported as 0.128.
In the case of C37U U60A, the self-cleavage is reported as 0.352.
Work on C37U U60C yielded a self-cleavage of 0.645.
With U33A C50G the self-cleavage was 0.211.
G29C A64U gave a self-cleavage of 0.192.
With U60C G68U the self-cleavage was 0.204.
Work on G21C U52A yielded a self-cleavage of 0.909.
For G13A C18U, the self-cleavage was 1.1.
For U9C G29C, the self-cleavage was 0.1.
With U63C U70A the self-cleavage was 0.189.
U33G C48A showed a self-cleavage of 0.158.
Work on U7C A45U yielded a self-cleavage of 0.231.
With C46U U53C the self-cleavage was 0.235.
With A24C A45G the self-cleavage was 0.171.
Work on U8A G32A yielded a self-cleavage of 0.141.
Variant G21C A22C has a self-cleavage of 0.61.
For U5A A43U, the self-cleavage was 0.188.
Variant U14C G51C has a self-cleavage of 0.586.
For G13C A39G, the self-cleavage was 0.186.
Variant U5C A49C has a self-cleavage of 0.377.
C3A G25U showed a self-cleavage of 0.406.
In the case of C37G A59U, the self-cleavage is reported as 0.0586.
With G1U G34C the self-cleavage was 0.143.
A31C C48U showed a self-cleavage of 0.159.
In the case of U7G G21A, the self-cleavage is reported as 0.499.
For C6U G17A, the self-cleavage was 0.917.
In the case of C48U G56C, the self-cleavage is reported as 0.104.
Variant A45G C65A has a self-cleavage of 0.349.
A30C C65A gave a self-cleavage of 0.0386.
With C3A G17C the self-cleavage was 0.375.
In the case of G40A A71C, the self-cleavage is reported as 0.574.
A49G U63A gave a self-cleavage of 0.0688.
G51A A59C gave a self-cleavage of 0.181.
G40A U52G showed a self-cleavage of 0.212.
Work on C12U G68A yielded a self-cleavage of 0.259.
For C6G C37U, the self-cleavage was 0.257.
Work on A11U G32C yielded a self-cleavage of 0.144.
U7G C18A gave a self-cleavage of 1.01.
With A11C C50A the self-cleavage was 0.288.
A39U U55A gave a self-cleavage of 0.155.
Variant G32U U58G has a self-cleavage of 0.137.
Work on A11G C37A yielded a self-cleavage of 0.149.
Work on G27C C50G yielded a self-cleavage of 0.114.
A41U G68C showed a self-cleavage of 0.262.
Variant A43U A64U has a self-cleavage of 0.266.
For U5C A11U, the self-cleavage was 0.55.
For G25U U63C, the self-cleavage was 0.184.
G51C G56C showed a self-cleavage of 0.065.
Variant A28G A31C has a self-cleavage of 0.113.
G15A G21A showed a self-cleavage of 0.831.
With G27A A71C the self-cleavage was 0.95.
C4U G32A gave a self-cleavage of 0.196.
Variant A11G G17U has a self-cleavage of 0.823.
U14C A59C gave a self-cleavage of 0.0922.
For G57U U67G, the self-cleavage was 0.152.
For G27A G40A, the self-cleavage was 0.143.
A30U U55A gave a self-cleavage of 0.0256.
For A22C G42C, the self-cleavage was 0.291.
G27A G56U gave a self-cleavage of 0.156.
For G51C C66U, the self-cleavage was 0.452.
In the case of A31C G32U, the self-cleavage is reported as 0.348.
G21U C50A gave a self-cleavage of 0.194.
Variant C12U A26C has a self-cleavage of 0.481.
With C12U A26G the self-cleavage was 0.796.
In the case of G1C C10A, the self-cleavage is reported as 0.102.
For G27U A47U, the self-cleavage was 0.192.
Work on G17A G68A yielded a self-cleavage of 0.301.
For C10G C50G, the self-cleavage was 0.142.
With G27A A45G the self-cleavage was 0.196.
In the case of C50A U55C, the self-cleavage is reported as 0.582.
Variant A28C U33A has a self-cleavage of 0.145.
In the case of A28C U33G, the self-cleavage is reported as 0.
For A39G U62G, the self-cleavage was 0.074.
Variant U52A G54U has a self-cleavage of 0.64.
With U5C G27A the self-cleavage was 0.247.
With C50A U60C the self-cleavage was 0.419.
Variant G15U G25U has a self-cleavage of 0.778.
Variant G13A U55A has a self-cleavage of 0.333.
Work on C6U G29A yielded a self-cleavage of 0.158.
For U14A G42C, the self-cleavage was 0.281.
G29U U70G showed a self-cleavage of 0.315.
With G29C A36U the self-cleavage was 0.0836.
For G29C G51C, the self-cleavage was 0.103.
For A28U U52G, the self-cleavage was 0.374.
In the case of U7C U58A, the self-cleavage is reported as 0.565.
For A47U G68A, the self-cleavage was 0.148.
In the case of U62C A71C, the self-cleavage is reported as 0.595.
G15A C66A showed a self-cleavage of 0.129.
With G19U G34U the self-cleavage was 1.3.
Work on C4G A35C yielded a self-cleavage of 0.16.
In the case of C6G U62A, the self-cleavage is reported as 0.0667.
U5C U8A showed a self-cleavage of 0.197.
In the case of A44C G51A, the self-cleavage is reported as 0.0817.
